Experimental data: patent US20150218285A1 (TORAY INDUSTRIES, published 2015)
Positions count from the first letter of the chain named.

T1: CAPRIN-1 protein on the cell surface of human cancer cells (human, UniProt Q14444 2-709)
T1 construct: whole, on cells; endogenous protein of human cancer cell lines
T1 sequence (looked up): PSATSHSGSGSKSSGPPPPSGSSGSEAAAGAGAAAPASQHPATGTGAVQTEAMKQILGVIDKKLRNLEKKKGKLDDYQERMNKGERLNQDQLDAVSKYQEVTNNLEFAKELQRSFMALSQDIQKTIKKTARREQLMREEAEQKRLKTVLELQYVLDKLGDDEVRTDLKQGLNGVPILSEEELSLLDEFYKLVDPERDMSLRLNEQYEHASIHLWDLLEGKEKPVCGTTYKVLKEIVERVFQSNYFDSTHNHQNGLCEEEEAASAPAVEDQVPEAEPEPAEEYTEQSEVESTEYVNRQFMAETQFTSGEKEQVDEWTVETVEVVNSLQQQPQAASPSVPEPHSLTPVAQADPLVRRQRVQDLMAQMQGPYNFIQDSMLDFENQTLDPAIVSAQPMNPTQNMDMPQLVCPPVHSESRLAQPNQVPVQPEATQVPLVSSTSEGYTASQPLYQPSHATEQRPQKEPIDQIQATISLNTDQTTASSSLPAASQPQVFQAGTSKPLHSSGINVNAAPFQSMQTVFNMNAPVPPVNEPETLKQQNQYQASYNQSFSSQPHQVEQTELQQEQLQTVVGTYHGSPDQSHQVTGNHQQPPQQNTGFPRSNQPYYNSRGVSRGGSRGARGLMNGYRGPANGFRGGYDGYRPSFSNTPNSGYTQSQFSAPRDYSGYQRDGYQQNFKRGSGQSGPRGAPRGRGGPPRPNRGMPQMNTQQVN

T2: polypeptide set forth in SEQ ID NO: 266 (human)
T2 construct: identified by ELISA on synthetic 12-16 aa peptides of human CAPRIN-1
T2 peptide: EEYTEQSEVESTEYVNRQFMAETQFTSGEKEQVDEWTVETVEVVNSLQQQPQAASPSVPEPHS

T3: peptide set forth in SEQ ID NO: 267 (human)
T3 peptide: QQPQAASPSVPE

T4: polypeptide set forth in SEQ ID NO: 430 (human)
T4 peptide: ATQVPLVSSTSEGYTA

T5: human CAPRIN-1 recombinant protein (human, UniProt Q14444 1-709)
T5 construct: also called CAPRIN-1 protein; human CAPRIN-1 protein
T5 sequence: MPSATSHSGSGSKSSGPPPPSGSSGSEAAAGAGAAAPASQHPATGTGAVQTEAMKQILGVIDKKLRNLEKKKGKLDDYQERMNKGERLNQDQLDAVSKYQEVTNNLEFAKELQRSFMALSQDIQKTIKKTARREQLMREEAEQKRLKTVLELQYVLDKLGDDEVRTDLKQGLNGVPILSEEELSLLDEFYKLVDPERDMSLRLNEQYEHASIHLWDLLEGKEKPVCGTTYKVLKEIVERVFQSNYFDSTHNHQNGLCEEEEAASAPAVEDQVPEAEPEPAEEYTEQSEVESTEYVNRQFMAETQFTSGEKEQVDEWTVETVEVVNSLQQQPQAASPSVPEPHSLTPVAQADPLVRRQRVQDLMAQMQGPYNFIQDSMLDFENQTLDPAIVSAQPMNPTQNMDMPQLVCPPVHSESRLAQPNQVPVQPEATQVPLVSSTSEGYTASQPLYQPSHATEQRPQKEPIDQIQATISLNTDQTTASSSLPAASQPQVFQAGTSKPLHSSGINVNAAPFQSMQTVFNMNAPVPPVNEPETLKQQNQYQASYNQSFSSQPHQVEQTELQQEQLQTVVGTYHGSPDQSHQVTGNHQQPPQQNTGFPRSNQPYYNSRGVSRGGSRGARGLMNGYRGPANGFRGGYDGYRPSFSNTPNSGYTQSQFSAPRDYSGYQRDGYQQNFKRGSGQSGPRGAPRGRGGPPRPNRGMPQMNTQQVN

B1: mouse anti-CAPRIN-1 antibody #31 (antibody, V domains shown)
VH: GPELVKPGASVKISCKASGYSFTGYFMNWVMQSHGKSLEWIGRINPYNGDTFYNQKFKGKATLTVDKSSSTAHMELRSLASEDSAVYYCARRIHYYYGSSYYAMDYWGQEPHH
VL: DVQITQSPSYLAASPGETITINCRASKSISKYLAWYQEKPGKTNKLLIYSGSTLQSGIPSRFSGSGSGTDFTLTISSLEPEDFAMYYCQQHNEYPWTFGGGTKLEIKR
notes: mouse hybridoma antibody; also called mouse anti-CAPRIN-1 monoclonal antibody #31
B2: mouse monoclonal antibody #4 (antibody, V domains shown)
VH: GAELVRSGASVKMSCKASGYSFTDYNMYWVKQTPGQGLEWIGYIYPGNGGTNYNQKFKGKATLTADTSSSTAYMQISSLTSEDSAVYFCARDYDDGGYAMDYWGQGTTVTVSS
VL: DIQMTQSPASLSASVGETVTITCRASGNIHNYLTWYQQKQGKSPQLLVYNAKTLADGVPSRFSGSGSGTQYSLKINRLQPEDFGSYYCQHFWNIPWTFGGGTKLNSR
notes: mouse hybridoma antibody
B3: human-chicken chimeric antibody #1 (antibody, human IgG1, kappa, V domains shown)
VH: AVTLDESGGGLQMSRGGLSLVCKASGFDFSSYQMNWIRQAPGKGLEFVAAINKFGNSTGHGAAVKGRVTISRDNGQSTVRLQLNNLRAEDTAIYFCTKHAYGYCGSGTWCAAGEIDAWGHGTEVIVSS
VL: QAASTQPSSVSANPGETVEITCSGGGSYSYGWFQQKSPGSAPVTVIYYNNKRPSDIPSRFSGSKSGSTGTLTITGVQADDEAVYYCGSGDSTDTAVFGAGTTLTVLG
notes: chicken variable domains with human IgG1 H-chain and L-chain constant domains; also called human-chicken chimeric monoclonal antibody #1
B4: humanized anti-CAPRIN-1 antibody #2 (antibody, human IgG1, V domains shown)
VH: EVQLVESGGGLVQPGGSLRLSCAASGFSFSGSYYMSWVRQAPGKGLEWIAYIYIGDGVTAYANWAKGRFTISKDNSKNTLYLQMNSLRAEDTAVYFCARGNKLWGPGTLVTVSS
VL: DIQMTQSPSSLSASVGDRVTIKCQASQSISSYLAWYQQKPGKAPKRLIYDASNLDSGVPSRFSGSGSGTDFTFTISSLQPEDIATYYCQCTAVSSATIYGNAFGGGTKVEIK
B5: humanized anti-CAPRIN-1 antibody #1 (antibody, human IgG1, V domains shown)
VH: B4 VH with E1Q, Q13K, K73R, S76A, T79S, K102R, P106Q
VL: B4 VL with S14A, A43P
B6: humanized anti-CAPRIN-1 antibody #3 (antibody, human IgG1, V domains shown)
VH: B4 VH with K73R, F96Y
VL: B4 VL
B7: mouse monoclonal antibody #12 (antibody, V domains shown)
VH: EVQLHQFGAELVKPGASVKISCKASGYTFTDYNMDWVKQSHGKSLEWIGDINPNYDSTSYNQKFKGKATLTVDKSSSTAYMELRSLTSEDTAVYYCARSRSYDYEGFAYWGQGTLVTVSA
VL: DIQMTQSPASLSASVGETVTITCRASGNIHNYLAWYQQKQGKSPQLLVYNAKTLADGVPSRFSGSGSGTQYSLKINSLQPEDFGSYYCQHFWSTLTFGAGTKLELKR
notes: mouse hybridoma antibody
B8: mouse monoclonal antibody #15 (antibody, V domains shown)
VH: B7 VH
VL: SGDRVSLSCRASQSISNYLHWYQQKSHESPRLLIKYASQSISGIPSRFSGSGSGTDFTLSINSVETEDFGMYFCQQSNSWPYTFGAGTKLEIKQ
notes: mouse hybridoma antibody
B9: mouse monoclonal antibody #14 (antibody, V domains shown)
VH: B7 VH
VL: DIQLTQSPASLSASVGETVTITCRASGNIHNYLAWYQQKQGKSPQLLVYNAKTLADGVPSRFSGSGSGTQYSLKINSLQPEDFGSYYCQHFWSTLTFGGGTKLEIK
notes: mouse hybridoma antibody
B10: mouse monoclonal antibody #3 (antibody, V domains shown)
VH: GGGLVKPGGSLKLSCAASGFTFSSYGMSWVRQTPEKRLEWVATISSGGSYTYYPDSVKGRFTISRDNAKNTLYLQMSSLRSEDTAMYYCASLASYYFDYWGQGTTLTVSS
VL: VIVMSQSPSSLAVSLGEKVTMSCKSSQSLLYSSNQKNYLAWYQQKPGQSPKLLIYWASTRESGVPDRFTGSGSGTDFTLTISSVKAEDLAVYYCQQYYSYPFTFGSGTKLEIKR
B11: mouse monoclonal antibody #18 (antibody, V domains shown)
VH: LQESGAELARPGASVKLSCKASGYTFTSYWMQWVKQRPGQGLEWIGAIYPGDGDTRYTQKFKGKATLTADKSSSTAYMQLSSLASEDSAVYYCARGEYGNYFAYWGQGTTVTVSS
VL: TSDASLGERVTITCKASQDINSYLSWFQQKPGKSPKTLIYRANRLVDGVPSRFSGSGSGQDYSLTISSLEYEDMGIYYCLQYDEFPLTFGGGTKLEIKQ
notes: mouse hybridoma antibody

Biological target: T1, CAPRIN-1 protein on the cell surface of …
Test: flow cytometry on Hep3B, HepG2, SK-Hep-1, SW480; antibody 20 ug/mL; control: secondary antibody only
Description: Four human liver cancer cell lines (Hep3 GB, HepG2, SK-Hep-1, and SW480) were investigated whether or not a CAPRIN-1 protein is expressed on the cell surface using mouse anti-CAPRIN-1 monoclonal antibodies #30 to #36. 5×10⁵ cells of each of the liver cancer cell lines were centrifuged with a 1.5-mL micro centrifugation tube. The cells were subjected to reaction with each of mouse anti-CAPRIN-1 antibodies #30 to #36 at a final concentration of 20 μg/mL, followed by being left to stand on ice for 1 hour. After washing with PBS, the cells were reacted with a 100-fold diluted Alexa488-labeled goat anti-mouse IgG antibody (manufactured by Invitrogen Corporation), followed by being left to stand on ice for […]. After washing with PBS, the fluorescence intensity was measured with FACS Calibur available from Becton, Dickinson and Company. Separately, the cells were subjected to reaction with only the secondary antibody as a negative control.

For B1, which “increase in fluorescence intensity over the control” value is on record?
Its value is no less than 35%.

Biological target: T2, polypeptide set forth in SEQ ID NO: 266
Test: ELISA on immobilised synthetic CAPRIN-1 peptides, culture supernatant

Does B2 bind?
Result: binds

Does B3 bind?
Result: binds

Biological target: T3, peptide set forth in SEQ ID NO: 267
Test: as above

Does B2 bind?
Result: binds

Does B3 bind?
Result: binds

Biological target: T1, CAPRIN-1 protein on the cell surface of …
Test: reactivity with liver cancer cell lines, method not detailed

Does B4 bind?
Result: binds

Does B5 bind?
Result: binds

Does B6 bind?
Result: binds

Biological target: T1, CAPRIN-1 protein on the cell surface of …
Test: flow cytometry on Hep3B, HepG2, SK-Hep-1, SW480; culture supernatant; vs isotype control
Description: Subsequently, four liver cancer cell lines (Hep3 GB, HepG2, SK-Hep-1, and SW480), which were confirmed to express a CAPRIN-1 gene, were investigated for whether or not a CAPRIN-1 protein is expressed on the surfaces of these cells. 1×10⁶ cells of each cell line were centrifuged with a 1.5-mL micro centrifugation tube. To the cells was added the culture supernatant (100 μL) containing any of mouse monoclonal antibodies #1 to #22 against a CAPRIN-1 protein reacting to cancer cell surface produced in Example 4 and mouse-chicken chimeric antibodies #1 to #3 against a CAPRIN-1 protein produced in the above (2), followed by being left to stand on ice for 1 hour. After washing with PBS, the cells were suspended in a FITC-labeled goat anti-mouse IgG antibody (manufactured by Invitrogen Corporation) diluted by 500-fold with PBS containing 0.1% FBS, followed by being left to stand on ice for 1 hour. After washing with PBS, the fluorescence intensity was measured with FACS Calibur available from Becton, Dickinson and Company. Separately, as a control, the same procedure as in above was performed using an iso-type control antibody, instead of the culture supernatants containing the mouse monoclonal antibodies #1 to #22 against a CAPRIN-1 protein and the mouse-chicken chimeric antibodies #1 to #3. As a result, the fluorescence intensity in the cells to which any of the monoclonal antibodies #1 to #22 and the mouse-chicken chimeric antibodies #1 to #3 was added was 20% or more higher than that in the control in every case. Specifically, in the case of using mouse-chicken chimeric antibody #1, the fluorescence intensity was enhanced by 200% or more in both SK-Hep-1 and Hep3B. […] The rate of increase in the fluorescence intensity is represented by the rate of increase in the mean fluorescence intensity (MFI value) in each cell and is calculated by the following calculation formula: […]

For B7, which “rate of increase in mean fluorescence intensity” value (“rate of increase” for short) is on record?
Its value is no less than 20%.

B8 was tested. Which “rate of increase” value did it give?
The value was no less than 20%.

Which “rate of increase” value does the source give for B9 here?
The value was no less than 20%.

How did the “rate of increase” value turn out when B10 was run?
Its value is no less than 20%.

For B2, which “rate of increase” value is on record?
Its value is no less than 20%.

B11 was tested. Which “rate of increase” value did it give?
Its value is no less than 20%.

Biological target: T1, CAPRIN-1 protein on the cell surface of …
Test: cell-based or functional assay

Which “cytotoxicity (ADCC, 51Cr release) on SK-Hep-1” value (shortened to “cytotoxicity”) does the source give for B7 here?
The value was no less than 12%.

With B8 as the binder, how does the “cytotoxicity” value read?
The value was no less than 12%.

With B9 as the binder, how does the “cytotoxicity” value read?
The value was no less than 12%.

With B10 as the binder, how does the “cytotoxicity” value read?
Its value is no less than 12%.

B2 was tested. Which “cytotoxicity” value did it give?
Its value is no less than 12%.

For B11, which “cytotoxicity” value is on record?
Its value is no less than 12%.

Biological target: T4, polypeptide set forth in SEQ ID NO: 430
Test: reactivity with the epitope peptide, method not detailed

Does B4 bind?
Result: binds

Does B5 bind?
Result: binds

Does B6 bind?
Result: binds

Biological target: T5, human CAPRIN-1 recombinant protein
Test: reactivity with CAPRIN-1 protein, method not detailed

Does B4 bind?
Result: binds

Does B5 bind?
Result: binds

Does B6 bind?
Result: binds
